Data on one substance can be found in US20240383996A1.

For experiment [1], the target named is Human OX40 expressed on transfected Jurkat or CHO cells (human) (UniProt P43489). Kind of experiment: flow cytometry, whole cell binding to human OX40-expressing Jurkat cells, Geo MFI.
Experiment [2] has as its target Human CTLA4 expressed on transfected CHO or Jurkat cells (human) (UniProt P16410). As to the kind of experiment: flow cytometry, whole cell binding to human CTLA4-expressing Jurkat cells, Geo MFI.

Chain of Human CTLA4 expressed on transfected CHO or Jurkat cells (human) (P16410 36-222 limits assumed): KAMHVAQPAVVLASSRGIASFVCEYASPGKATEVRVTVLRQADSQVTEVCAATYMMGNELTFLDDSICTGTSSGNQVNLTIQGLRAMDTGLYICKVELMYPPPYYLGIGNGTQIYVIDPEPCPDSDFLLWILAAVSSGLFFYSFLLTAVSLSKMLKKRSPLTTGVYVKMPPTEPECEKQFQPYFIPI
Chain of Human OX40 expressed on transfected Jurkat or CHO cells (human) (P43489 29-277 limits assumed): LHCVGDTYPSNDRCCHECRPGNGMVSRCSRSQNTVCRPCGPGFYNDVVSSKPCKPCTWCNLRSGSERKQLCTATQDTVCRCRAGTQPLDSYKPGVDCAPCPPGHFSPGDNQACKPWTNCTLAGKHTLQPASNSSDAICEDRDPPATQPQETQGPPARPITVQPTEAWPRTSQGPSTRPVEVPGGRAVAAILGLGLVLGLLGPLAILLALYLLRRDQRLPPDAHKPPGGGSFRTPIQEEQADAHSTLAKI

Consider “ATOR-1015 analog (reference anti-OX40/CTLA4 bispecific antibody synthesized in-house)”, for which the EC50 in experiment [1] came out at 10.3 nM; in experiment [2], 37.4 nM.
